Test: soluble on expression in E. coli; label from the status in PepcDB or PDB records

Row | Sequence | soluble on expression in E. coli
1 | MQKVLAIVGPTAIGKTDLAISLAQKLNGEIISGDSMQVYQEVEVGTAKATKEEQAKVKHYLVDNRSVFDEYSVKDFVDEAKKAISEVAKKGKLPILVGGTGFYVNALLNEMQLGERNDEERGTSQKWEDYLKENGAEKLWQILNEKDPTAAAKIPVPNSRRTMRALTVIDRTGKKFSEQQKKIKPRYDYLIIGLNSDRQEIYRRINLRVDKMMGKGMLEEAKFIYDNRDKEHQILQAIAYKEFFPYFDGEKSLEDCVTQLKTASRRYAKRQLTYFRNQLPIQWFDPLNDLECEQKIINKVREWENGLEHHHHHH | soluble
2 | MQLEELINQHYSKLNDNDFHILKYILNHKHTCYHLGIDALAKACSVSRSSILRLAQKLGFSGYSEFRVFLKWEDQPEEGESMSFEKLLDDIEANLKFLRTKDMTDMCQLIDAADRIFVYGSGNAQKICARDLQRMFIPRHRYLILIEDTNEFNLMRDDFKVNDLFIIISLSGETPELIPQARMLSAKGIPFISITNLKNNVLAQLTPHNLYATSKPVTLSDRTEIVAFAPFFLVGEALFRAYVDYKEAEKNDNEMAGDPLEHHHHHH | soluble
3 | MQNAVKLDEIDHKIMNLLYENARISVSEIGRIISMTQPAVKERINKLEDQGVIAAYRTKFEPSKINKNIQAFIMFKTSQCSDFIQFCNAAPEVTDLYRISGEFNYMMKVMSDSMDSLAAFLDSLMQFGLSSPLIVLKSEFEEKLSF | soluble
4 | MQNKIQVKSVEKRENALIFCAENSEIEVKELSARNHVLVDSDNLSFLYILENESSFIYVSIPHTCWEAMHEAMNNDVVMFVRVNDIEMELEGLKEEVEYLVENIEGNANYGEELVTAVEKVFL | not soluble
5 | MQNPQNLIWIDLEMTGLDPDRDVIIEMATIVTDSDLNTLAEGPVIAIHQPEEILAGMDEWNTRQHGQSGLTQRVRESTVSMAEAEAQTLAFLEQWVPKRSSPICGNSICQDRRFLYRHMPRLEGYFHYRNLDVSTLKELAARWAPQVRESFKKGNTHLALDDIRESIAELRHYRDHFIKL | not soluble
6 | MQNTAHIIGAGISGLSAAVRLANAGFKVAVHEATHQAGGRCRSYFDGATNLTIDNGNHLLLSGNSHARAYARSIGTEAGLVGPESAQFPFVDIKTGQRWQIDLGTGRLPTWVLDESRRVPDTGLTDYLKLAPLIWASEETLVGKSIPTEGVLYQRLVQPLLLAALNVDPPEGSAGLAGAIVRETLLAGGQACRPLIARDGLSAVLIEPAVKFLQERGHSVQLGHELRAFVTSDGKAGALNFGGEDVIQLADGDVVVMAVPPRAAASLLPGLKTPTEFRAIVNAHFRFEPPPGSPPILGVIGGIVEWLFAFPNRLSVTISNGDRLVDMPREELAQAIWNDVCEAGGVSGELPPWQIVRERRATFAATPAQNALRPGPVTALKNLFLAGDWTATGLPATIEGSVRSGDRAADLVLAAQRPLEHHHHHH | not soluble
7 | MQNTTHDNVILELTVRNHPGVMTHVCGLFARRAFNVEGILCLPIQDSDKSHIWLLVNDDQRLEQMISQIDKLEDVVKVQRNQSDPTMFNKIAVFFQ | not soluble
8 | MQPNDITFFQRFQDDILAGRKTITIRDESESHFKTGDVLRVGRFEDDGYFCTIEVTATSTVTLDTLTEKHAEQENMTLTELKKVIADIYPGQTQFYVIEFKCL | soluble
9 | MQQEEPNKYVKELTQEKYKYGFTTEVHTDVIERGLNEDVVRLISSKKDEPEWLLEFRLKAYRHWLTLEMPTWAHLRIPEIDYQAISYYADPTKKKEGPKSMDEVDPELIKTFNKLGIPLEEQMALSGMAVDAVMDSVSVKTTFKETLMEKGIIFCSFSEAVREHPDLVKKYMGSVVGYRDNFFAALNSAVFSDGSFVYIPKGVRCPMELSTYFRINARNTGQFERTLIVADDDSYVSYLEGCTAPMRDENQLHAAIVEIVVHDRAEVKYSTVQNWYPGDAEGKGGVYNFVTKRGNCKGVDSKLSWTQVETGSAITWKYPSCILTGDNSTAEFYSVAVTNNYQQADTGTKMIHLGKNTRSTIVSKGISAGHSENSYRGLVRVAEKADNARNYSQCDSLLLGDKCGAHTFPYMDIHNETAVVEHEATTSKISEDQIFYCNQRGIPTEDAIGLIVNGYAKEVLNKLPMEFAVEAQKLLTISLEGSVG | not soluble
10 | MQQINFYRQRVAINVLAKDIANAKAIYEAAEGHAVIGVLSAQFATVEEGVPEVKRWMAEVPSISVGLGAGDPAQYYKAAMIAAHTHPAHVNQTFTGSGFAAGALAATGGEQTHINALVSPTGTPGEVVISTGVSSSQGTPARVSCEAAVRMMQDMGAHAAKFFPMGGEKSLPELYALATTAARHGMTLIEPTGGISLDNFGIILQTCLEAGVPRVMPHVYSSIIDPQTGNTRPEDIIRLMEIVKALV | not soluble
11 | MQQQILERIEDCYQQAEAYFKRAFPRPTTQFTLRGRSAGTAHLQQNRLRFNPVLLRENSEAFLAEVVPHEISHLLCFQIFGKTKPHGREWQSIMLKLFKISPNTTHNFDTQSVKGKDVEYRCACGPIRLGIRRHNKVLRGETRYLCKRCHTHLTLALEHHHHHH | not soluble
12 | MQQQVAPVPVIGVTADVLQMQANMKSLKSQLTNAPYGDSPLLKYNANPEIDGKSSPASTQRQLRFLAAKKGALSSSSDAQDSSFIIPPISKVMSDLSPAVTRSADVTKDLNYTSKEAPPSLARGLRNSTFNPNMSLTNRSVHESSALDKTIDSALDASMNGTSNRLGVRGSVRRSNLKQLDMSLLADSSRVGRESRVADPDALPRISESERRQDVVTSTPAVDPVQAVIQRHNDRNRDPPSLNLDTTCDEHTGLEPVSAATSSAASVVSTPSEETVNVNSAAGVKLTKPDYFSLPTINEMKNMIKNGRVVLEDGLTVGRSSYGSVYWPGRVELKDVALDEIVVFRHREVTVYPNEEEKAPEGQELNRPAEVTLERVWYTDKKTKKEVRDVVKLSEIGWREHLERQTIRMGAAFKDFRAETGSWVFRVDHFSKYGLADDDEPMDGSPPQQALQASSPLQVIDMNTSARDVNNQVQRKKVHKATDAHHQEIILERVPAPAALGDVVPIIRRVNRKGLGGGTLDDSREESCIGNMTTEFNESGHDSIIEEGQQPEKKPKLELLADLEYESSRFIRNLQELKVMPKANDPAHRFHGGGHSAKMIGYGKSKLIDIGIVKGRSSHVGWSETGCLVWSAQPRHNQVLFGTIDRTSDVNENTLISMLDVNVHVSETSRKGPSSQSNSVKSSLTSNFVTYSDSYSSMFAKYIDVAQAGGYDGHVSVWKLISALFPYERREGWSFERGEEIGEWLRTEAVKSVPDDRSADTSSNGVWNQLCLGDIDKAFQIAIDNNQPQLATMLQTSAVCPEATVHCFKAQLDNWKKCETLHLIPKETLKCYVLMSGLSHYEWDQDGKNHSINCLDGLNWIQALGLHVWYLRAWTGLEESYDAYQKDVNAGRAASNRGDLPGELIKLACESQHSVEVVLDCAAGENPNDYFLQWHVWSLLYSVGYRTMSKTSETRLHRNYSSQLEASSLSKYALFVLQHIDDDEERSTAVRSLLDRIARFTDNDMFDSISEQFDIPSEWIADAQFSIAKSVDDSTQLFELAVAAKNYLEICRLFVDDIAPTAVVAGDHDALKAACAMVRPFENQIPEWGATGMVYTDYCRLINLIENDAEEELLQDVLESLETRLHAPTISKNSLQKLSLQTIGRVLFEYRADKNTLPEWTKLLGHRQMFKIFRDRSSWGIERFTIEFD | not soluble
13 | MQQVFNVSVPVPDDVVIISKEEYLNLLSDNEQGKWWDIDNLQELLGIGRSKLINDILLNPDIKKEVDLSINPNGFIVYPKGKGSRYKILATKARKYFEDNFGS | not soluble
14 | MQRGLLVLHASAIAAAGKGAIFMGDKGAGKSTTASALIRAGHELLTDDVVALDLARPDAPMIVAGFPQIKLAADAAAAISLGRAEVRPQVHPAIEKMQHRLHGAFSGGMVPATRIYVLERGLEHHHHHH | not soluble
15 | MQTPHILIVEDELVTRNTLKSIFEAEGYDVFEATDGAEMHQILSEYDINLVIMDINLPGKNGLLLARELREQANVALMFLTGRDNEVDKILGLEIGADDYITKPFNPRELTIRARNLLSRTMQ | soluble
16 | MQVSIVNEHKYRELEPLNEMLVKRGGVKMIPEPKFVISGLVDNEEYVIKLRIDLADEFRYSYQNQQWTPFAPSTKNSKLSAITETEHRKETGATWNMRIVQFDKLLITREFNDIQRNVIHVEPNHKYIPVLTIQNVTTGKSTEFQFQQMEFIAVKSYQSARIRHTKRAPRKMNLAPGSSQKPQLIVPDILHSPTYGFTAAPPPFPFEYWLLYPQIQYQIQQLAYSLPMGPPMVPIHHIQCTEASQRVYAPEYGWNSILMPGAHKEQDDHYMFHHEIWAPQDHELEKLHVLTEQKNKPSETPQ | not soluble
